Data set [1] addresses GST-RelA(1-313) (NF-kB p65, DNA binding and IkBa interactive domain) (UniProt Q04206 Q04206:1-313). Briefly: filter; variable region alone sufficient for binding; data not shown; competition and direct binding. The conditions noted are these: tags: GST; chain copies: 2. As for the experimental part: Binding Studies: (i) Nitrocellulose filter binding assay: Filter binding assays were performed as described (22). Initially, 70 mer oligonucleotides were commercially synthesized (IDT) to include the proximal 20 bases of each flanking primer sequence and the 30 base variable region. DNAs were 5′ end-labeled with ³²P-ATP using T4-PNK (New England Biolabs) and purified by glass bead binding using a MERMAID kit (MP Biomedicals LLC). Protein and labeled aptamer were incubated in ABB and filtered through 25 mm nitrocellulose filters. The bound material was counted in a Beckman Liquid Scintillation counter. For competition studies, binding reactions (100 μL) in ABB were incubated at RT for 20 min with 100 fold excess (10 picomoles) of unlabeled competitor DNAs, followed by the addition of 0.1 picomole of ³²P-labeled KB55 probe. After 30 min of incubation, reactions were filtered and counted. The KB55 sequence is […] (SEQ ID NO: 3) and self anneals to form a duplex. Upper and lower strands of IL8KB are […] (SEQ ID NO: 4) and […] (SEQ ID NO: 5), respectively.
Isolation of RelA(1-313) binding single stranded aptamer: Purified recombinant GST-RelA(1-313), encoding the DNA binding and IκBα interactive domain, was used to screen for high affinity ssDNA aptamers by repeated rounds of in vitro binding and enrichment. […]

The target of data set [2] is endogenous RelA in A549 cells (Homo sapiens, UniProt Q04206 Q04206:1-551). Briefly: cell_activity; 4 uM transfected aptamer; control induction 5-fold (Gro-beta) and nearly 7-fold (TNFAIP3). As for the experimental part: A549 cells transfected with nothing (−), 4 μM P028A1 or P028F4 aptamers were stimulated in the absence (Con) or presence of TNF. (1 h, 30 ng/ml). Total RNA was extracted and subjected to Q-RT-PCR for Gro-β (top panel) and TNFAIP3/A20 (bottom panel). Data are normalized to GAPDH and expressed as fold change relative to uninfected control. Each bar is mean±SD of triplicate determination. * p<0.05 and (4B) ChIP assay. A549 cells transfected with nothing (−), P028A1 (4 μM) or P028F4 (4 μM) were stimulated in the absence (Con) or presence of TNF (1 h, 30 ng/ml). Two-step ChIP was preformed using pre-immune IgG (IgG), or anti-RelA as the primary Abs. Immunoprecipitated DNA was subjected to quantitative PCR using primers for Groβ (top) or TNFAIP3/A20 promoters (bottom) as indicated. Data are shown as fold increase in signal relative to unstimulated A549 cells (X, ±SD of technical replicates). The study was repeated twice with similar results;
Aptamer P028F4 inhibits TNFα-induced endogenous NF-κB dependent gene expression: Earlier studies selectively inhibiting NF-κB/RelA translocation identified Groβ and TNFAIP3/A20 as part of a TNFα inducible gene network downstream of NF-κB (3,4,39). […] Relative changes in Groβ and TNFAIP3/A20 transcripts were determined by Q-RT-PCR. […]

Sequence of endogenous RelA in A549 cells (Q04206 whole entry, one chain of several): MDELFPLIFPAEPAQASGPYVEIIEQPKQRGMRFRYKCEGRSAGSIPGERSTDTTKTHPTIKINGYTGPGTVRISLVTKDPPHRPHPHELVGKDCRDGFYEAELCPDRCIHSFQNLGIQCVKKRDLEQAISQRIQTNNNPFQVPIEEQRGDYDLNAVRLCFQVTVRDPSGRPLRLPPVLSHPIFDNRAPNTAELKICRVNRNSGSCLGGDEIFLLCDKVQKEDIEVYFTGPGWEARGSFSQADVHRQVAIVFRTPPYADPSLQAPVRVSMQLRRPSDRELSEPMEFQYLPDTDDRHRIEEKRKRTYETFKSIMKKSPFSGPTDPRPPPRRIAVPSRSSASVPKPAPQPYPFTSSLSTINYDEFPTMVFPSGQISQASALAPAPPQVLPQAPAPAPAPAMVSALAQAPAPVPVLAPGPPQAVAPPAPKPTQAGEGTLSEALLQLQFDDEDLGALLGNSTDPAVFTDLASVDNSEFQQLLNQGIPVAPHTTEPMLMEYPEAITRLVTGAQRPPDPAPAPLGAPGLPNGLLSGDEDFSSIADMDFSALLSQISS
Sequence of GST-RelA(1-313) (NF-kB p65, DNA binding and IkBa interactive domain) (Q04206 1-313, one chain of several): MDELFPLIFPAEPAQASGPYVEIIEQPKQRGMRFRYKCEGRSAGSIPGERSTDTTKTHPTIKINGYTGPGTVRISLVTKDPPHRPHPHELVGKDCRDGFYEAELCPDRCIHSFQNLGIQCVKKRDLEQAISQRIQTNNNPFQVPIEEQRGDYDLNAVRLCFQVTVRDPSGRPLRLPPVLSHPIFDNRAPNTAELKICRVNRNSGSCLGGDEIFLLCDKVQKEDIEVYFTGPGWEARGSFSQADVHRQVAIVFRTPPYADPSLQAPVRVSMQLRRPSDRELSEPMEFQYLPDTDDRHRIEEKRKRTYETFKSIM

B1: P028F4 30-base variable region (ssDNA)
DNA: GCGGGACAGGAGAAACACGGCATGTCAGCG
As for B1, in data set [1], the binding result is recorded as “binds”.

B2: P028F4 (ssDNA)
DNA: GGGTAACCTTGAGTCACGAATTCAAGCGGGACAGGAGAAACACGGCATGTCAGCGAAGGTACCCAACTTACAGCTTCTGG
In the case of B2, the activity in data set [2] was < 2 fold induction of Gro-beta and TNFAIP3 mRNA.

Values taken from patent US20120263651, “Single Stranded DNA Aptamers Binding NF-kB/RelA” (Board of Regents, The University of Texas System, published 2012).
